In patent publication US20250188157A1 (UNIVERSITY OF TOKYO, published 2025):
Substitutions are numbered along the chain they refer to.

Columns and labels:
[1] = molecular target: T1, E. coli wild-type SHMT, GST fusion protein (E. coli, UniProt P0A825 1-417); assay: ELISA, GST fusion protein coated at 2 ug/ml, dilution series of antibody
T1 construct: Overexpressed in E. coli as GST fusion protein, purified, coated at 2 ug/ml on the ELISA plate; not shown: GST tag
T1 sequence: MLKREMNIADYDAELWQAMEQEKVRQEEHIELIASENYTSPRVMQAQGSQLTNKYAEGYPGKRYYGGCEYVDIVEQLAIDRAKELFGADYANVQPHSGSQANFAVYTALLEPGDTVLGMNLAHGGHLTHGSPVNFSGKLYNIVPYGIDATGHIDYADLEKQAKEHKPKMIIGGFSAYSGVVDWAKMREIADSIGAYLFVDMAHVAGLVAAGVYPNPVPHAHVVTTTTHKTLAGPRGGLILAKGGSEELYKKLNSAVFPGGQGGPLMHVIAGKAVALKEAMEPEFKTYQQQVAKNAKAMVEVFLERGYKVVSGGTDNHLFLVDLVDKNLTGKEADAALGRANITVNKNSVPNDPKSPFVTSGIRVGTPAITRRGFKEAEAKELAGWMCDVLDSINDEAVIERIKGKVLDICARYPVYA

E. coli iPGM = molecular target: T2, E. coli iPGM (E. coli, UniProt P37689 1-514, limits assumed); assay: Western blot
T2 sequence (looked up): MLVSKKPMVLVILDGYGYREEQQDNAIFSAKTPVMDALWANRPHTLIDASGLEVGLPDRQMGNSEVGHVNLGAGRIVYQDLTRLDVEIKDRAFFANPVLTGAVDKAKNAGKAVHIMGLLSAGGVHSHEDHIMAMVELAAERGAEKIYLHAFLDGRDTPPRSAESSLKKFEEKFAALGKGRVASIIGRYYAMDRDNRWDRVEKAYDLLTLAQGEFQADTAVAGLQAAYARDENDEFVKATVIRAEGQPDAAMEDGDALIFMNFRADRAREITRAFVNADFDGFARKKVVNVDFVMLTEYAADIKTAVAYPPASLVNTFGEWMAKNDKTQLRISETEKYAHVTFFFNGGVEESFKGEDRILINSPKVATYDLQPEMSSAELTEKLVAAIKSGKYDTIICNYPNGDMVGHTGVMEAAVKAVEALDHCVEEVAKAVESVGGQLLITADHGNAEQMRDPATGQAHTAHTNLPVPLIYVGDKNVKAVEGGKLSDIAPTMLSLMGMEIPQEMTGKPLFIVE

E. coli SHMT (25-45) = molecular target: T3, E. coli SHMT (25-45) (E. coli); assay: X-ray crystal structure of the complex
T3 construct: Expressed as GST fusion, cleaved with HRV 3C protease and purified for crystallisation; also called E. coli SHMT antigen
T3 peptide: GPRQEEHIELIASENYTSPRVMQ

[2] = molecular target: T4, C. difficile iPGM (486-509) (Clostridium difficile); assay: X-ray crystal structure of the complex
T4 construct: the blank is left out; also called C. difficile iPGM antigen
T4 peptide: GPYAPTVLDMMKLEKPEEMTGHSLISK

B1: RS_H007_L001 (antibody, V domains shown)
VH: EVQLQQSGSELVKSGASVKLSCTVSGFNFTNYYIHWVRQRTEQGLEWIGRIDPENNQTTYAPKFQGKATMTADTSSNTAYLQLTSLTSEDTAVYYCARSTVLDYWGHGTTLTVSS
VL: DVLMTQSPASLSVSLGDRATISCRASQSIVHTNGNTYLEWYLQKPGQSPKLLIYKVSNRFSGVPDRFSGSGSGTDFILKISRVEAEDLGVYYCFQGSHVPPTFGGGTKLEVK
[1]
  binding result: binds

B2: W27G2 antibody (mouse W27G2 hybridoma-producing IgA antibody) (antibody, V domains shown)
VH: B1 VH with N31D, N56D, Q57E
VL: DVLMTQTPLSLPVSLGDQASISCRASQSIVHTNGNTYLEWYLQKPGQSPKLLIYKVSNRFSGVPDRFSGSGSGTDFILKISRVEAEDLGVYYCFQGSHVPPTFGGGTKLEVKR
notes: Hybridoma-producing IgA; Both names are treated as one molecule here; W27G2CHT is the hydroxyapatite crude preparation, W27G2GF the gel filtration multimer fraction; also called W27 antibody; W27G2CHT
E. coli iPGM
  binding result: no binding
[1]
  binding result: binds

B3: RS_H000_L000GR Fab (Fab, V domains shown)
VH: B1 VH with N31D, N56D, Q57E
VL: B1 VL with S7T, A9L, S12P, R18Q, T20S
notes: also called IgG W27 Fab
E. coli SHMT (25-45)
  binding result: binds
[2]
  binding result: binds

B4: RS_H000_L001 (antibody, V domains shown)
VH: B1 VH with N31D, N56D, Q57E
VL: B1 VL
notes: recombinant multimeric IgA co-expressed with J chain (H:L:J = 2:2:1); mainly dimers by SDS-PAGE; also called rW27
[1]
  binding result: binds

B5: RS_H007_L005 (antibody, V domains shown)
VH: B1 VH
VL: B1 VL with A25S
[1]
  binding result: binds

B6: RS_H000_L005 (antibody, V domains shown)
VH: B1 VH with N31D, N56D, Q57E
VL: B1 VL with A25S
[1]
  binding result: binds

B7: RS_H007_L004 (antibody, V domains shown)
VH: B1 VH
VL: B1 VL with L11M, A25S
[1]
  binding result: binds

B8: RS_H007_L002 (antibody, V domains shown)
VH: B1 VH
VL: B1 VL with A19V
[1]
  binding result: binds
